The values below come from PMC5987714 (The Journal of Cell Biology, 2018).

One test addresses TRAF2 (UniProt Q12933). Nature of the test: two-color single-molecule coincidence. As to conditions: reference: no ABL1; sites Y14.
In test [1] the target is T1, mCherry-CAV1^FL (caveolin-1, full length, amino acids 1–178) in cell-free caveolae (UniProt Q03135 1-178).
T1 sequence: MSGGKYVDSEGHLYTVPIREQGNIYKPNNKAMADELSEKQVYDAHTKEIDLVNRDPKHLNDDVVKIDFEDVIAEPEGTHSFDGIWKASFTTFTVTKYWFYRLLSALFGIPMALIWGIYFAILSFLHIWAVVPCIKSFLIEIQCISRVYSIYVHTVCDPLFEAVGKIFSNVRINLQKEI
As to the kind of experiment: two-color single-molecule fluorescence coincidence.

Test [2] addresses T2, mCherry-CAV1^Y14-p (CAV1 + ABL1 coexpression) (UniProt Q03135 1-178).
T2 sequence: T1 sequence
Nature of the test: two-color single-molecule fluorescence coincidence.

Turning to “CAV1 (caveolin-1; cell-free and transfected constructs) 1-178 (from UniProt Q03135) untagged ABL1 coexpressed”, the “other: position of coincidence peak” value in the test with TRAF2 is reported as “stronger; reference 0.75”.

B1: GFP-TRAF2 (TNF receptor–associated factor 2), cell-free (natural protein)
chain: MAAASVTPPGSLELLQPGFSKTLLGTKLEAKYLCSACRNVLRRPFQAQCGHRYCSFCLASILSSGPQNCAACVHEGIYEEGISILESSSAFPDNAARREVESLPAVCPSDGCTWKGTLKEYESCHEGRCPLMLTECPACKGLVRLGEKERHLEHECPERSLSCRHCRAPCCGADVKAHHEVCPKFPLTCDGCGKKKIPREKFQDHVKTCGKCRVPCRFHAIGCLETVEGEKQQEHEVQWLREHLAMLLSSVLEAKPLLGDQSHAGSELLQRCESLEKKTATFENIVCVLNREVERVAMTAEACSRQHRLDQDKIEALSSKVQQLERSIGLKDLAMADLEQKVLEMEASTYDGVFIWKISDFARKRQEAVAGRIPAIFSPAFYTSRYGYKMCLRIYLNGDGTGRGTHLSLFFVVMKGPNDALLRWPFNQKVTLMLLDQNNREHVIDAFRPDVTSSSFQRPVNDMNIASGCPLFCPVSKMEAKNSYVRDDAIFIKAIVDLTGL
As to B1, the figures for the “coincidence C = mCherry/(GFP+mCherry), Gaussian peak” value in test [1] and in test [2] were 0.75 and 0.6, respectively. Besides, the “stoichiometry N” value in test [2] was ~1 mCherry-CAV1:GFP-TRAF2.
